Reference: publication PMC2175135

Target: LexA-tpr-met-Gab1Cter Y473F Y590F (two-hybrid bait) (UniProt Q9QYY0)
Assay: two-hybrid

## COOH-terminal SH2 domain of p85α PI(3)K (two-hybrid prey) (from UniProt P26450 624-718) (domain or fragment)
  percent of the interaction with Gab1Cter: 25%
